Assays:
Assay in all cases: fluorescence dot blot
[1] = biological target: T1, PBP2a (penicillin binding protein 2a), recombinant soluble (Staphylococcus aureus (MRSA)?, UniProt Q7DHH4 25-668)
T1 sequence: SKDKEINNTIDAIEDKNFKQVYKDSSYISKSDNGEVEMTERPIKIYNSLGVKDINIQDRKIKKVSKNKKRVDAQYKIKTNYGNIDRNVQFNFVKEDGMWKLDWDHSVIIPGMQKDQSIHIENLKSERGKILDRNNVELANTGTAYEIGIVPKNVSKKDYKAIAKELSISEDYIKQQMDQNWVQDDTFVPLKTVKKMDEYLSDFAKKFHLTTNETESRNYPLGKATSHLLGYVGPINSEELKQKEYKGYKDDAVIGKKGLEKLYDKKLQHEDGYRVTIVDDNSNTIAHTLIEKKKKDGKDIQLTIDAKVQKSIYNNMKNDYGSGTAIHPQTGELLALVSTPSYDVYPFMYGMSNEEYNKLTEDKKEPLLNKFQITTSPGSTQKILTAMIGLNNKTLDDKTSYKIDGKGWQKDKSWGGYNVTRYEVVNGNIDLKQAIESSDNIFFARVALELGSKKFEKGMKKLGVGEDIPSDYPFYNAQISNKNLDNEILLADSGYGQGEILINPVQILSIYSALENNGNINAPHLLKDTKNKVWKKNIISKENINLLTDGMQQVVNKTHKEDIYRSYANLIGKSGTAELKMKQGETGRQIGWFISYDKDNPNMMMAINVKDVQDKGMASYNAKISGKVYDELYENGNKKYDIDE

[2] = biological target: thrombin (UniProt P00734;P00734 328-363;364-622)
[3] = biological target: myeloperoxidase (MPO) (UniProt P05164;P05164 165-273;279-745)
Chain of myeloperoxidase (MPO) (P05164 165-273, chain 1 of 2): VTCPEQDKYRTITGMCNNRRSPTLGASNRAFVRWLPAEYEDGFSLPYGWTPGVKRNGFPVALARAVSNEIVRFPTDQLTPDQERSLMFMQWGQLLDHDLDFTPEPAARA
Chain of myeloperoxidase (MPO) (P05164 279-745, chain 2 of 2): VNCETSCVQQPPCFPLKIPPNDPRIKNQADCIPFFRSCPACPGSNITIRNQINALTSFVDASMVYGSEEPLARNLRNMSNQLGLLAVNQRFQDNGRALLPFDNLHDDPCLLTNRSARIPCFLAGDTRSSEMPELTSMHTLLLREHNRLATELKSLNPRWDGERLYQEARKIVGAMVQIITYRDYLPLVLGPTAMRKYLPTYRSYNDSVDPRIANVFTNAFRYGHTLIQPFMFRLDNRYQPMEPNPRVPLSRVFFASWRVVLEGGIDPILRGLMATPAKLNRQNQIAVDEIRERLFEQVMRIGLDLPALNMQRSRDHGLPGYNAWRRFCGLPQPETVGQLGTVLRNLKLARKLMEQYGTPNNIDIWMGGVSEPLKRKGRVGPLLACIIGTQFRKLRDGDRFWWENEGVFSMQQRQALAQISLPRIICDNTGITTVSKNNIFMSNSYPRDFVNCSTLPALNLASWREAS

B1: PBP2a-Apt1T1 (ssDNA)
DNA: ATGCCATCCTACCAACCCGGTGTTCGTGTGGGTGTAGAGGGGGCGAAGGATGGC
- Kd [1]: 58 ± 11 nM
- binding result [2]: no binding
- binding result [3]: no binding

— article PMC12338438
